Assay results published in paper PMC8957996.

Columns and labels:
[Val^1]gA [1] = single-channel electrophysiology (planar lipid bilayer); DOPE:DOPC (4:1)/n-decane bilayer, 0.1 M Na+, pH 3 (Gly-Gly); bilayer punch method, 25 ± 1 °C, ±200 mV
[Val^1]gA [2] = single-channel electrophysiology (planar lipid bilayer); DOPE:DOPC (4:1)/n-decane bilayer, 0.1 M Na+, pH 5 (Gly-Gly); bilayer punch method, 25 ± 1 °C, ±200 mV
[Val^1]gA [3] = single-channel electrophysiology (planar lipid bilayer); DOPS:DOPC (1:2)/n-decane bilayer, 0.1 M Na+, pH 7 (HEPES); bilayer punch method, 25 ± 1 °C, ±200 mV
[Val^1]gA [4] = single-channel electrophysiology (planar lipid bilayer); DOPE:DOPC (3:1)/n-decane bilayer, 1.0 M NaCl, unbuffered (pH 6-7); bilayer punch method, 25 ± 1 °C, 200 mV, 100 Hz
[Val^1]gA [5] = single-channel electrophysiology (planar lipid bilayer); DOPE:DOPC (1:1)/n-decane bilayer, 1.0 M NaCl, unbuffered (pH 6-7); bilayer punch method, 25 ± 1 °C, 200 mV, 100 Hz
[Val^1]gA [6] = single-channel electrophysiology (planar lipid bilayer); DOPC/n-decane bilayer, 1.0 M NaCl, unbuffered (pH 6-7); bilayer punch method, 25 ± 1 °C, 200 mV, 100 Hz
[Val^1]gA [7] = single-channel electrophysiology (planar lipid bilayer); DOPS:DOPE (1:2)/n-decane bilayer, 0.1 M Na+, pH 7 (HEPES); bilayer punch method, 25 ± 1 °C, ±200 mV
[Val^1]gA [8] = single-channel electrophysiology (planar lipid bilayer); DOPS/n-decane bilayer, 0.1 M Na+, pH 3 (Gly-Gly); bilayer punch method, 25 ± 1 °C, ±200 mV
[Val^1]gA [9] = single-channel electrophysiology (planar lipid bilayer); DOPS/n-decane bilayer, 0.1 M Na+, pH 7 (HEPES); bilayer punch method, 25 ± 1 °C, ±200 mV
[Val^1]gA [10] = single-channel electrophysiology (planar lipid bilayer); DOPE:DOPC (1:3)/n-decane bilayer, 1.0 M NaCl, unbuffered (pH 6-7); bilayer punch method, 25 ± 1 °C, 200 mV, 100 Hz
[Val^1]gA [11] = single-channel electrophysiology (planar lipid bilayer); DOPS/n-decane bilayer, 0.1 M Na+, pH 5 (Gly-Gly); bilayer punch method, 25 ± 1 °C, ±200 mV
[Val^1]gA [12] = single-channel electrophysiology (planar lipid bilayer); DOPE:DOPC (4:1)/n-decane bilayer, 0.1 M Na+, pH 9 (Na2HPO4); bilayer punch method, 25 ± 1 °C, ±200 mV
[Val^1]gA [13] = single-channel electrophysiology (planar lipid bilayer); DOPE:DOPC (4:1)/n-decane bilayer, 0.1 M Na+, pH 1; bilayer punch method, 25 ± 1 °C, ±200 mV
[Val^1]gA [14] = single-channel electrophysiology (planar lipid bilayer); DOPE:DOPC (4:1)/n-decane bilayer, 0.1 M Na+, pH 7.8 (Na2HPO4); bilayer punch method, 25 ± 1 °C, ±200 mV
[Val^1]gA [15] = single-channel electrophysiology (planar lipid bilayer); DOPS/n-decane bilayer, 0.1 M Na+, pH 8 (Na2HPO4); bilayer punch method, 25 ± 1 °C, ±200 mV; monomers in opposing monolayers dimerise to the conducting channel
[Val^1]gA [16] = single-channel electrophysiology (planar lipid bilayer); DOPS/n-decane bilayer, 0.1 M Na+, pH 4 (Gly-Gly); bilayer punch method, 25 ± 1 °C, ±200 mV
[Val^1]gA [17] = single-channel electrophysiology (planar lipid bilayer); DOPS/n-decane bilayer, 0.1 M Na+, pH 7 (Na2HPO4); bilayer punch method, 25 ± 1 °C, ±200 mV
[Val^1]gA [18] = single-channel electrophysiology (planar lipid bilayer); DOPE:DOPC (4:1)/n-decane bilayer, 0.1 M Na+, pH 0; bilayer punch method, 25 ± 1 °C, ±200 mV
[Val^1]gA [19] = single-channel electrophysiology (planar lipid bilayer); DOPS/n-decane bilayer, 0.1 M Na+, pH 6 (Na2HPO4); bilayer punch method, 25 ± 1 °C, ±200 mV
[Ala^1]gA [20] = single-channel electrophysiology (planar lipid bilayer); DLoPC/n-decane bilayer (25 uM butylated hydroxytoluene in the bilayer-forming solution), AgA(15) and gA^-(13) together, 1 M NaCl, pH 7 (10 mM HEPES), 200 mV, 500 Hz; 25 ± 1 °C
[Ala^1]gA [21] = single-channel electrophysiology (planar lipid bilayer); DoPC (ether phospholipid)/n-decane bilayer, AgA(15) and gA^-(13) together, 1 M NaCl, pH 7 (10 mM HEPES), 200 mV, 500 Hz; 25 ± 1 °C
[Ala^1]gA [22] = single-channel electrophysiology (planar lipid bilayer); DOPC/n-decane bilayer, AgA(15) and gA^-(13) together, 1 M NaCl, pH 7, 200 mV, 500 Hz; 25 ± 1 °C
des-(Val^1-Gly^2)gA^– [23] = assay: single-channel electrophysiology (planar lipid bilayer); DLoPC/n-decane bilayer (25 uM butylated hydroxytoluene in the bilayer-forming solution), AgA(15) and gA^-(13) together, 1 M NaCl, pH 7 (10 mM HEPES), 200 mV, 500 Hz; 25 ± 1 °C
des-(Val^1-Gly^2)gA^– [24] = assay: single-channel electrophysiology (planar lipid bilayer); DoPC (ether phospholipid)/n-decane bilayer, AgA(15) and gA^-(13) together, 1 M NaCl, pH 7 (10 mM HEPES), 200 mV, 500 Hz; 25 ± 1 °C
des-(Val^1-Gly^2)gA^– [25] = assay: single-channel electrophysiology (planar lipid bilayer); DOPC/n-decane bilayer, AgA(15) and gA^-(13) together, 1 M NaCl, pH 7, 200 mV, 500 Hz; 25 ± 1 °C

For [Val^1]gA (peptide), the channel lifetime tau (= 1/k-1, dissociation of the dimer) ([Val^1]gA [1]) was 70 ms, the channel lifetime tau (= 1/k-1, dissociation of the dimer) ([Val^1]gA [2]) was 80 ms and the channel lifetime tau (single experiment) ([Val^1]gA [2]) was 65 ms. The channel lifetime tau (= 1/k-1, dissociation of the dimer) ([Val^1]gA [3]) was 470 ms, the channel lifetime tau (single experiment) ([Val^1]gA [3]) was 486 ms and the channel lifetime tau (= 1/k-1, dissociation of the dimer) ([Val^1]gA [4]) was 260 ms. The fold decrease of k1 (association rate constant) against DOPC bilayers ([Val^1]gA [4]) was 10 fold, the fold decrease of the dimerization constant KD (= k1·τ) against DOPC bilayers ([Val^1]gA [4]) was 20 fold and the channel lifetime tau (= 1/k-1, dissociation of the dimer) ([Val^1]gA [5]) was 240 ms. The channel lifetime tau (single experiment) ([Val^1]gA [5]) was 229 ms, the channel lifetime tau (= 1/k-1, dissociation of the dimer) ([Val^1]gA [6]) was 550 ms and the channel lifetime tau (single experiment) ([Val^1]gA [6]) was 563 ms. It also gave a channel lifetime tau (= 1/k-1, dissociation of the dimer) ([Val^1]gA [7]) of 140 ms, a channel lifetime tau (single experiment) ([Val^1]gA [7]) of 143 ms and a channel lifetime tau (= 1/k-1, dissociation of the dimer) ([Val^1]gA [8]) of 170 ms. It also gave a fold decrease of k1 (association rate constant) against pH 7 ([Val^1]gA [8]) of 100 to 400 fold, a fold decrease of the dimerization constant KD (= k1·τ) against pH 7 ([Val^1]gA [8]) of 1000 fold and a channel lifetime tau (= 1/k-1, dissociation of the dimer) ([Val^1]gA [9]) of 1340 ms. It also gave a channel lifetime tau (= 1/k-1, dissociation of the dimer) ([Val^1]gA [10]) of 350 ms, a channel lifetime tau (single experiment) ([Val^1]gA [10]) of 304 ms and a channel lifetime tau (= 1/k-1, dissociation of the dimer) ([Val^1]gA [11]) of 800 ms. The channel lifetime tau (= 1/k-1, dissociation of the dimer) ([Val^1]gA [12]) was 150 ms, the channel lifetime tau (single experiment) ([Val^1]gA [12]) was 162 ms and the channel lifetime tau (= 1/k-1, dissociation of the dimer) ([Val^1]gA [13]) was 90 ms. For the same substance, the channel lifetime tau (= 1/k-1, dissociation of the dimer) ([Val^1]gA [14]) was 100 ms, the channel lifetime tau (= 1/k-1, dissociation of the dimer) ([Val^1]gA [15]) was 1380 ms and the channel lifetime tau (= 1/k-1, dissociation of the dimer) ([Val^1]gA [16]) was 270 ms. It also gave a channel lifetime tau (= 1/k-1, dissociation of the dimer) ([Val^1]gA [17]) of 1320 ms, a channel lifetime tau (= 1/k-1, dissociation of the dimer) ([Val^1]gA [18]) of 220 ms and a channel lifetime tau (single experiment) ([Val^1]gA [18]) of 235 ms. The channel lifetime tau (= 1/k-1, dissociation of the dimer) ([Val^1]gA [19]) was 920 ms.
[Ala^1]gA (peptide) showed a channel lifetime tau (= 1/k-1, dissociation of the dimer) ([Ala^1]gA [20]) of 823 ms, a channel lifetime tau (= 1/k-1, dissociation of the dimer) ([Ala^1]gA [21]) of 296 ms and a channel lifetime tau (= 1/k-1, dissociation of the dimer) ([Ala^1]gA [22]) of 170 ms.
Substance des-(Val^1-Gly^2)gA^– (peptide) has a channel lifetime tau (= 1/k-1, dissociation of the dimer) (des-(Val^1-Gly^2)gA^– [23]) of 61 ms, a channel lifetime tau (= 1/k-1, dissociation of the dimer) (des-(Val^1-Gly^2)gA^– [24]) of 29 ms and a channel lifetime tau (= 1/k-1, dissociation of the dimer) (des-(Val^1-Gly^2)gA^– [25]) of 13.8 ms.
